The source of these data is publication doi:10.64898/2025.12.12.693935.

This experiment deals with CD82-StrepII3 (human) (UniProt P27701). Nature of the experiment: SEC.

B1: CADM1-His6 (natural protein)
chain: QNLFTKDVTVIEGEVATISCQVNKSDDSVIQLLNPNRQTIYFRDFRPLKDSRFQLLNFSSSELKVSLTNVSISDEGRYFCQLYTDPPQESYTTITVLVPPRNLMIDIQKDTAVEGEEIEVNCTAMASKPATTIRWFKGNTELKGKSEVEEWSDMYTVTSQLMLKVHKEDDGVPVICQVEHPAVTGNLQTQRYLEVQYKPQVHIQMTYPLQGLTREGDALELTCEAIGKPQPVMVTWVRVDDEMPQHAVLSGPNLFINNLNKTDNGTYRCEASNIVGKAHSDYMLYVYDPPTTIPPPTTTTTTTTTTTTTILTIITDSRAGEEGSIRAVDHAVIGGVVAVVVFAMLCLLIILGRYFARHKGTYFTHEAKGADDAADADTAIINAEGGQNNSEEKKEYFI
Take B1: the stoichiometry N (as a rule, a count of units in the complex or per binding partner) amounted to 1.
